Test results as given in patent US6953577B2, “Human methionine aminopeptidase type 3” (Pharmacia Corporation, priority 1999, dated 2005).

Test system: CSCC[C@H](N)C(=O)N[C@@H](C)C(=O)N[C@@H](CO)C(=O)O
Test: purified protein, by the assay type
Conditions: other: hydrolysis of methionine from MAS peptide substrate; pH 7.5
Method: Hydrogen peroxide, produced by the L-amino acid oxidase reaction, was measured by monitoring the formation of resorufin from Amplex Red in a reaction catalyzed by of horseradish peroxidase. […] The reaction was performed in a 96-well plate format at ambient temperature using the following assay buffer: 20 mM HEPES-Na pH 7.5, 100 mM NaCl, 0.1 mM CoCl2 containing 100 μM Amplex Red, 0.15 U/ml L-amino acid oxidase, 0.5 U/ml horseradish peroxidase.
The IC50 values were determined under conditions in which enzyme concentration and reaction time were linear.

Work on “recombinant human MetAP-1 (Homo sapiens)” yielded a Km of 8.5 mM and a kcat of 0.75 s⁻¹.
